Results published in the nanobody polyreactivity screen of Harvey et al. (2022).

Assay: yeast display, Sf9 membrane polyspecificity reagent, FACS + sequencing; frameworks hold sequencing errors
In short: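 Nanobodies from a synthetic yeast display library (Saccharomyces cerevisiae BJ5465), induced 36–48 hours with galactose, were stained 1 hour at 4 °C with 10% biotinylated, detergent-solubilized Sf9 membrane reagent, enriched on streptavidin microbeads, then FACS-sorted. Anti-HA (expression) and streptavidin (reagent binding) fluorescence set low and high (top ~1%) gates. Polyreactivity labels come from the gate of origin. Genes were colony-PCR amplified, MiSeq 2 × 250 sequenced and filtered by CDR length.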

| Sequence | polyreactivity (PSR sort gate) |
| --- | --- |
| QVQLVESGGGLVQAGGSLRLSCASSGRTFRKYAMGWYRQAPGKERELVAGIDTSGGSTFYADSVKGRFTISRDNAKNTVYLQMNSLKPEDTAVYYCNADRHRINRPVILYYWGQGTLVTVSS | low polyreactivity |
| QVQLVESGGGLVQAGGSLRLSCAASGRTIRHNAMGWYRQARGKERELVAAISRSGGSTYYADSVKGRFTISRDNAKNTVYLQMNSLKPEDTAVYYCAAGYHIIYTPEYYYWGQGTQVTVSS | high polyreactivity |
| QDQLVESGGGLVQAGGSLRLSCAASGLTFAPYAMGWYREAPGKERELVAAISNGGSTYYADSVKGRFTISRDNAKNTVYLQMISLKPEDTAVYYCADRAFYFWRGYDYWGQGTQVTVSS | high polyreactivity |
| QVHLVESGGGIDQAGGSLRLSCAASGSTFTNNTMGWYRPAPGKERELVAGITKSGGSTYYADSVKGRFTISRDNAKKTVYLQMNSLKPEDTAVYYCATSTSRRYGSRHNYWGQGTQVTVSS | high polyreactivity |
| QVQLVESGGGLVQAGGSLRISSAASGRTFGPYAIGWYRQAPGKESELVAAITSSGGSTYYADSVKGRFTISRDTAKNTFYLQMNSLKPEDTAVYYCNKLYWRESPDYDYWGQGTQVTVSS | low polyreactivity |
| QVQLVESGGGLVQAGGSLRLSCAASGRIFRRSALGWSRQAPGKEREFVAAISSGGSTYYADSVKGRFTISRDNAKKYRLFTDEQPETGRYRGLLLRCVRYDVNLYDYWGHGTQVTVSS | low polyreactivity |
| QVQLVESGGGLVQAGGSLRLSCAASGRTFGKYAMGWYRQAPGKERELVAGISSRGGSTYYADSVKGRFTISRDNAKNTVYLQMNSLKPEDTAVYYCAKRPLTSNASQGDYWGQGTQVTVSS | high polyreactivity |
| QVQLVESGGGLVQAGGSLRLSCAASGLIFAGYAMGWYRQAPGKERELVAAITWRGGRTYADSVKGRFTISRDNAKNTVYLQMNSLKPEDTAVYYCAVRRWGTSFVEDDYWGQGTQVTVSS | low polyreactivity |
| QVQLVESGGGLVKAGGSLRLSCSASGSTFRSNAMGWYRQAPGKERELVAGISSGGGTYYADSVKGRFTISRDNAKNTVYLQMNSLKPEDTAVYYCAKVVYFGWSVQYYYWGQGTQVTVSS | low polyreactivity |
| QVQLVESGGGLVQAGGSLRLSCAASGRTFTLNAMGWYRQAPGKEREFVAAISNSGVRTYYADSVKGRFTISRDNAKNTVYLQMNSLKPEDTAVYYCARTYQVGDSIDDYWGQGTQVTVSS | low polyreactivity |
| QVQLVESGGGSVQAGGSLRLSCAASGSIFRANAMGWYRQAPGKERELVAAITANGGSTYYADSVKGRFTISRDNAKNTVYLQMNSLKPEDTAVYYCNNARVRGARFDYWGQGTQVTVSS | high polyreactivity |
| QVQLVESGGGLVQAGGSLRLSCAASGFIFRWYAMGWYRQAPWKERELVASINTDGDSTYYADSVKGRFTISRDNAKNTVYLQMNSLKPEDTAVYYCAADYVGYWWYTSDNYDYWGQGTQVTVSS | high polyreactivity |
| QVQLVESGGGLVQAGGSLRLSCAASGRTFYRYAMGWYRQAPGKERELVAAISSNGGSTYYADSVKGRFTISRDNAKNTVYLQMNSLKPEDTAVYYCYYYYSRLFDYWGQGTQVTVSS | high polyreactivity |
| QVQLVDSGGGLVQAGGSLRLSCAASGRTIGINPMGWYRQAPGKERELVASITRSVGSTYDADSVKGRFTISRDNAKNTVYLQMNSLKPEDTEVYYCAAEYYTWSYYTKYYYWGQGTQVTVSS | high polyreactivity |
| QVQLVESWGGLVQAGGSLRLSCAASGSIFRRYAMGWYRQAPGKERELVAAISIGGRTYYADSVKGRFTISRDNAKNTVYFQMNSLKPEDTAVYYCAARESRSWGGGSWGQGTQVTVSS | high polyreactivity |
| QVQLEESGGGLVQAGGSLRLSCAASGIIIRYYAMGWYRQAPRKERELVDSITARSGSTYYADSVKGRFSISRDYAKNTVYFQMNSLKPEDTAVYYCAKSGKPARYYYWGQGTQVTVSS | high polyreactivity |

| Sequence | polyreactivity (PSR sort gate) |
| --- | --- |
| QVQLVESGRGLDQAGGSLRISSAASGNTYKGHAMGWYRHAPGKERELVAAISWSTDSTYYADSVKGRFTISRDNAKNTVYLQMNSLKPEDTAIYYCAAYYSHLTIAWYYYWGQGTQVNVSS | low polyreactivity |
| QVQLVESGGGLVQAGGSLRLSCADSGGTFFGYAMGWYRQAPGKERELVAAIRWSDGRTYYADSVKGRFTISRDNAKNTVFLQMNSLKPEDTAVYYCNADDARLFDYWGQGTQVTVSS | low polyreactivity |
| QVQLVESGGGLVQAGGSLRLSCAASGSTFTLNAMGWYRQAPGKERELVADISWSSGRTYYADSVKGRVTISRDNAKNTVYLQMNSLKPEDTAVYYCATDDFWNVKFYAYYPDFDHWGQGTQVTVSS | low polyreactivity |
| QVQLVESGGGLVQAGGSLRLSCAASGRTFYSYVMGWYRQSPGKERELVAAINNSGGGTYYADSVKGRFTISRDNAKNTVYLQMNSLKPEDTAVYYCNAVGGYWFDYWGQGTQVTVSS | high polyreactivity |
| QVQIVESGGGLVQAGGSLRLSCAASGSTFAYYTMGWYRQAPGKDRELVAAISASGGSTYYADSVKGRFTISRDNGKNTVYLQMNCLKPEVSEVYYCNAESYLTGWWVDYWGQGSQVTVSS | low polyreactivity |
| QVQLQESGGGLVQAGGSLRLSCAASGYISHADEMGWYRQAPGKEHELVASISNGGSTNYADSVKGRFTIRRDNAKNTVYLQMNSLKSEDTAVYYCAAWTGQVDIHDSWGQRTQVTVSS | low polyreactivity |
| QVQLVESGGGLVQAGGSLRLSCAASGLTFGWYAMGWYRQAPRKERELVAAISWSGSTTYYADSVKGRFTISRDNAKNTVYLQMNSLKPEDTAVYYCAADVSTRPYGYYYWGQGTQVTVSS | high polyreactivity |
| QVQLVESGGRLVQAGGSLRLSCAASGLIIDYYTMGWYRQAPGKERELVAAINKSGGSTYADSVKGRFTISRDNAKNTVYLQMNCLKPEDSAVYYCAAEVDYSYWPEYSRKYYYWGEGTQVTVSS | low polyreactivity |
| QVQLVESGGGLVQAGGSLRLSCAASGRIFSLNDMGWYRQAPGKERELVATIRGRGTSTYYADSVKGRFTISRDNAKNTVYLQMNSLKPEDTAVYYCAARGHGAYGYWGQGSQVTVSS | low polyreactivity |
| QVQLVESGGGLVQAGGSLRLSCAASGITFYRYAMGWYRQAPGKERELVAAISWSGGRTYYADSVKGRFTISRDNAKNTVYLQMNSLKPEDTAVYYCNAYLYPYTRLDYWGQGTQVTVSS | high polyreactivity |
| QVQLVESGGGLVQAGGSLRLSCAASGSTFGRNTMGWYRPAPGKERELVASITRSSTSTYYADSVKGRFTISRDNAKNTVYLQMNSLKPEDTAVYYCAARALRTDRSPVGRHEYWGQGTQVTVSS | low polyreactivity |
| QVQLVESGGGLVHAGGSLRLSCAASGSIFGVNMGWYRQAPGKERELVASITSGGSTNYADSVKGRFTISRDNAKNTVYLQMNSLKPEDTAVYYCAARAERVREYNYWGQGTQVTVSS | low polyreactivity |
| QVQLVESGGGLVQAGGSLRLSCAASGITLTVYTMGWYRQAPGKERKLVAAITYGGTSTYYADSVKGRFTISRDNAKNTVYLQMNSLKPEDTAVYYCAARARIYNYWGQGTQVTVSS | high polyreactivity |
| QVQLVESGGGLVQAGGSLRLSCAASGRTWSNAMGWYRQAPGKERELVAVITWDGVITYYADSVKGRFTISRDNAKNTVYLQMNSLKPEETAVYYCAATVYPGAGDYWGQGTQVTVSS | high polyreactivity |
| QVQLVESGGGLVQAGGILRLSCAASGSIFIYYAMVWYRQAPGKERELVAAISSSGGRTYYADSVKGRFTISRDNAKNTVYLQMNSLTPEDTAVYYCNAVGRRWYRDPARYNEYNYWGQGTQVTVSS | high polyreactivity |
| QVHLVDSGGGLVQAGGSLRLTCAASGITFYRYAMGWYRQAPWKERELVAAITGGGRTYYADSVKGRFTISRDNAKNTVYLQMNSLKPEDTAVYYCNVRTLHSVRGYDYWGQGTQVTVSS | high polyreactivity |
